# Assay: soluble on expression in E. coli; label from the status in PepcDB or PDB records
row,Sequence,soluble on expression in E. coli
1,MLNEKAIQDVDLYFQNIHGPEGRLASNETFDIVPGLSKDGAVQYQTYQFNEAPKHLQKQVKAGRILMERFVAVASAAVNKKAPSNKEKYHYDIWKEVSNQLIPAFFTDPIKGEQNLNTTVKGVEVAKSVIQFAGNVIAGNVTGFATFLQNFGNGLSAEMNKTQANYNYLYAYSTHDLFQDTSGNVFYKPRFLIYGTHFKQEQKKIATSCASYQEVNLEFGVDTVGGTFRIEEYFSNETFKKKVDNFLDKYEGKAIDDADSYFDDIFNGVKPNKNYVYHHHHHH,soluble
2,MTALISISLLLVTFAGAAEMCAPVTQHSTPQSDVPSTVTITFHKLETSTTTKDEILNAIRTSHPDVHATGEPIDKKSIKVTLTAVSCVTAMKLAEEVLNAGTPVVLNAYAMLCDGEISTNIKP,soluble
3,MGSDKIHHHHHHMGHSLLFAVDVRPPHDVGVDGPRTASMCQNEVVADLKQRRPSVEQIIRIGIDTSKHVFQLHGVNAAEEPVLRKKLRRKEVVALFEKLSPTVVAIEACGGSHHWARLLQSFGHEVKLIPPQYVKPYVKRGKNDTADAEALCEAMSRPTMRFVPVKTAKQQAALMLVGLRDRLIRNRTQLANAIRGYAAEYGLIAARGMCKIEPLLERIAADKMLPDLARELFALHAKEYAQLQTQLKDVDAKLMAWHRAEACSQRLAQIPGVGPIGASLLVMKTPAPETFRSARHFAAWLGLTPKDHSTAGRVRLGVITRAGDEALRSVLVAGATAVIRHVRRGRGAVSPWLVDLLKRKPPKLAAVALANKIARIAWKLMVSGEIYGAKPMPPASARAA,not soluble
4,MAIMRVNPTRMELTRLKKRLQVARRGHKLLKDKLDELMKQFLDLVRKNKELREKVEEMLMKAHQDFLIARAVMSSEGLEAALMLPKQSISLDVSTQNIMSVEVPVLKFTTSSSDESDIYPYGFASTSGELDGAILTLSKVLPYMLELAQMEKSSQLLAQEIEKTRRRVNALEYVMIPQLTETIKYISMKLDENERGNITRLMKVKDMMLEQAHNFKEKLNEA,soluble
5,MKMDTGALTFQQKIYWLVKQIPLGRVATYGQIAALCGWPRHGRYVGYALYRVAPNSDIPWHRVVNAQGKISYAPQRRGTDELQRWRLAAEGIIFTAGLEHHHHHH,not soluble
6,MKPKAITFDFWGTLFTEGEAFLEKVMPARYEILLDALSEAGHPVDEAEVREAYRQASLAFEEAWKAGEHMPVYERVARIFALLGAPHDPGLIALTARRLEESSLLAPLKPLPGVEVLKDLAKKYPLAIVSDTGMTPGRLLREHLKRQGLDVFQAFSFSDETGFVKPKPEAFRVALEALGVAPEEALHVGDLPQTDIKGAFGTGYPWAVQYVGLREVNGEVRPTAKVKDHRELLSLLT,soluble
7,MGSDKIHHHHHHAVTSCLDTEEIEYSPDATIHAFALDTIHGVNYKFTIDQLGPDGVGLIYNQDSLPVGSDTIIDRILIKTLTTTSGIITAKNAEGQDTLFNYSDSIDFRGTMQKPMRIKVWAADMQYTKEYTISVRVHQQDPDSMNWTKMTDNFANYSGYQKSVTLNEDLLIYTSNTTAYQSSGDVISKGRSWTPVSITGLPDNIKLSSIISFGGKLYATNGESAYVSSDGALWNVATDLNKNGKVEMLIAPFPKNEGNLLGISGIAGIINNGDQSTFAITNPEATAWNIGSETVGADFPLENLSATSYLTATGIQTIAVMGNNRNANDTTSIAWTSQDGLLWIPLKTSSSTAYCPKLDNPSFFYYDNAFLAFGGNFETIYTSEAGIAWYKANKKIFLPAEFKDRGNNYSTVVDKNNFIWVIWSNGGANEVWRGRINKFGFKRQNNN,not soluble
8,MQLSTLTALSPLDGRYQDKVTPLRAIFSEFGLMKFRVAVEVRWLQKLASTADITEVPPFSTQANAFLDGIVANFNEADAARIKEIERTTNHDVKAVEYFLKEKIQNEVELVKVSEFIHFACTSEDINNLSHALMLSTARDEVILPEWQKLIDEITRLAEEYKTIPLLSRTHGQPASPSTVGKEMANVVYRLKRQFKQLQNAEILGKINGAVGNYNAHLSAYPNIDWHKFSEEFVTSLGIQWNPYTTQIEPHDYITEFFDAVVRFNTIIIDFDRDLWGYIALNHFKQRTIAGEIGSSTMPHKVNPIDFENSEGNLGLANAVMTHLGQKLPISRWQRDLTDSTVLRNLGVGLGYCLIAYASTRKGISKLEVNQPHLLEELNQNWEVLAEPIQTVMRRYGIEKPYEKLKELTRGKRVTEQAMREFIDKLDIPQEEKLRLQKLTPATYIGAAVELVEKLS,not soluble
